Test system: MS2 coat protein
Assay: apparent KD of MS2 coat protein; designed switch direction (-1 OFF switch, 1 ON switch): -1; higher = weaker reporter binding
Procedure, shortened: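 SNAP-549-labelled MS2 coat protein was titrated, doubling from 0.7 or 1.5 nM to 3 µM, over designed RNA switches transcribed on Illumina chips by stalled E. coli RNA polymerase. Runs were done without input, with 200 uM small-molecule ligand, or with an oligonucleotide input. Apparent KD is the per-design median over clusters of curve-fitted normalised fluorescence.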

[1] = input ligand: microRNA oligo, concentration not stated
[2] = Eterna round: R95, input ligand: microRNA oligo, concentration not stated
[3] = Eterna round: R95, input ligand: FMN 200 uM
[4] = Eterna round: R95, input ligand: none

Sequence | apparent KD of MS2 coat protein (input ligand: FMN 200 uM) [nM] | apparent KD of MS2 coat protein [1] [nM] | apparent KD of MS2 coat protein (input ligand: none) [nM] | apparent KD of MS2 coat protein [2] [nM] | apparent KD of MS2 coat protein [3] [nM] | apparent KD of MS2 coat protein [4] [nM]
AAGAUGCGGAUAGGAUAUGGAAAGAAAAGAAAAUUAGAAGGGUUGGUUAAAAUACAUGAGGAUCACCCAUGUGAAUCAUGAGAA [AK ExNG1-2] (Eterna round: R96, puzzle: Exclusion NG 1) | 132 | 89.8 | 99.9 |  |  | 
AAGAUGCGGGUAGGAUAUGGAGAGAAAGAAAGACCAGAAGGAUUGGUCAUAUAACAUGAGGAUCACCCAUGUAUAUGUUGCGAA [EX ng 1 5] (Eterna round: R96, puzzle: Exclusion NG 1) | 19.6 | 16.2 | 21 |  |  | 
AAGCACAGAGGAUAUACAAUCCUCAGUGGGUCUGGCGAGCCACAUGAGGAUCACCCAUGUAGAAGGCUGGGCUC [Xezaoron] (puzzle: Exclusion 2) |  |  |  | 11 |  | 
AAGCAGCGAGGAUAUGCUUGCGCGUGUUCUAGUUGAAAUAAACUUGAGGAUCACCCAAGUAGAAGGCGCAACCG [EX2 #44] (Eterna round: R97, puzzle: Exclusion 2) | 437 |  | 65.6 |  |  | 
AAGCCCUGAGGAUAUCCCAACUCGCACAUGAGGAUCACCCAUGUCCUUCUCUGGGUUUCGGGAGAAGGCAGGCCUC [Megrez-8.3] (Eterna round: R97, puzzle: Exclusion 5) | 398 |  | 911 |  |  | 
AAGCGCGUAGGAUAUACAUGAGGAUCACCCAUGUGAGGAAGGAGUUGGAAGUGUGGAAGUAGAAGGACGGAGUG [JR_Exclu3_Sub078] (puzzle: Exclusion 3) |  |  |  | 44.3 | 35.4 | 41.7
AAGCUGAAGUGCCCGUCUUACAUGAGGAUCACCCAUGUUUUGCUGAAGCGAAUACUCGCAUUAGCAAGUGAGGUCCA [Eternabot (Original) Solution 9] (Eterna round: R97, puzzle: Sensor, turn-off variant 1) | 68.2 |  | 53.9 |  |  | 
AAGCUGGUAGGAUAUCGUACACGUAACAUGAGGAUCACCCAUGUGCGCUAUGUUGGAACUCGAGAAGGGCCCAUUC [Eternabot (L2) Solution 3] (Eterna round: R97, puzzle: Exclusion 5) | 19.3 |  | 18.5 |  |  | 
AAGCUGUGAGGAUAUACAUGAGGAUCACCCAUGUUAAGGAAGUCUUGGUUAAUUUGGUGUAGAAGGCGCUUAUU [JR_Ex3_Sub018] (Eterna round: R97, puzzle: Exclusion 3) | 32.6 |  | 32.4 |  |  | 
AAGGAAAAGUGAGGAUAUGGAAAUUUGGUGAUAACAUGAGGAUCACCCAUGUGAAAACAAUAAAAUUAGAAGGUAUAAAGAAAA [AK ExNG2-1.1] (Eterna round: R96, puzzle: Exclusion NG 2) | 120 | 66.7 | 107 |  |  | 
AAGGAACAUGAGGAUCACCCAUGUAAGGAUAUGCAAAGAGAGAAAGAAGAAGGAGAAAGCAGAAGGUACAAGGA [JR_Exclu1_Sub072] (puzzle: Exclusion 1) |  |  |  | 36.2 | 47.3 | 65.8
AAGGACAGAGGAUAUACAUAGAUACAGAUUCAUGUAGAACUACAUGAGGAUCACCCAUGUAGAAGGCUGUCCUA [Fiskers Ex 2 - 2] (Eterna round: R96, puzzle: Exclusion 2) | 412 | 25.3 | 31.7 |  |  | 
AAGGACAGAGGAUAUACAUAGAUACAGAUUCAUGUAGAACUACAUGAGGAUCACCCAUGUAGAAGGCUGUCCUA [Fiskers Ex 2 - 2] (puzzle: Exclusion 2) |  |  |  | 29.4 |  | 
AAGGGUAAAGGAUAUACAUGAGGAUCACCCAUGUUGAGGAAGGUUAGAUGAGGAGUAAGUAGAAGGUUAGACGA [JR_Exclu3_Sub089] (puzzle: Exclusion 3) |  |  |  | 52.6 | 57.1 | 69.6
AAGGGUAGGCAGGAUAUCCAGGUCGACACCGCGGGAGAAGGGCUUACAUGAGGAUCACCCAUGUAGGGUGCGAG [EX6 A.2] (Eterna round: R97, puzzle: Exclusion 6) | 253 |  | 133 |  |  | 
AAGGGUGCUUUCAGAACGACAUGAGGAUCACCCAUGUAGACUGAGGAUAUCUACUUCUAAGGACGGGAGAAGGUAGUGUAAUGC [Ex NG3 #67] (Eterna round: R96, puzzle: Exclusion NG 3) | 19.7 | 15.9 | 21.5 |  |  | 
AAGGGUGCUUUCGGAACGACAUGAGGAUCACCCAUGUAGACUGAGGAUAUCUACUUCUAAGGACGGGAGAAGGCAGUGUAAUGC [Ex NG3 #69] (Eterna round: R96, puzzle: Exclusion NG 3) | 47.8 | 28.3 | 42.6 |  |  | 
AAGGUCAAGAAUGGAAAUUAAAUACAUGAGGAUCACCCAUGUCAGGAUAUCCAGUAGAGACCUAGGGAGAAGGGACAUGAAAAG [Esonanza] (Eterna round: R96, puzzle: Exclusion NG 3) | 16.1 | 10.3 | 14.7 |  |  | 
